Laboratory results published in US20250154231A1 (RQBIO COVID, published 2025).
Read-outs that look alike come from different tables or passages of the source.

B1: Omi09 (antibody, V domains shown)
VH: QVQLVESGGGVVQPGRSLRLSCAASGFTFRTYAVHWVRQAPGKGPEWVAVISYDGSNKYYADSVKGRFTLSRDTSKNTLYLQMNSLRAEDTAVYYCASRGDTVTTGDAFDIWGQGTMVTVSS
VL: SYELTQPPSVSVSPGQTARITCSGDALPKQYTYWYQQKPGQPPVLVIYKDSERPSGIPERFSGSSSGTTVTLTISGVQAEDEADYYCQSTDSSATYPGNVVFGGGTKLTVL
B2: Omi39 (antibody, V domains shown)
VH: QVQLVESGGVVVQPGGSLRLSCAASGFSFDDYSMHWVRQAPGKGLEWVSVIYWDGVSKYYADSVKGRFTISRDNSKNSLYLQMNSLRTEDTAVYYCAKDSEDCSSTSCYMDVWGKGTTVTVSS
VL: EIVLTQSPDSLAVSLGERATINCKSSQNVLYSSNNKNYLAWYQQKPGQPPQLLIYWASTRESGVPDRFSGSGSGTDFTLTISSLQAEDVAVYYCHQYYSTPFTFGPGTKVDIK
B3: Omi25 (antibody, V domains shown)
VH: QVQLVESGGGLVQPGRSLRLSCAASGFTFDDYAMHWVRQVPGKGLEWVSGISWNSGSIVYADFVKGRFTIARDNAKNSLFLQMNSLRAEDTALYYCAKSTALRHQYYYGMDVWGQGTTVTVSS
VL: AIQMTQSPSSLSASVGDRVTITCRTSQTISSYLNWYQQKPGKAPKLLIYDASSLQSGVPSRFSGSGYGTDFTLTISSLQPEDFATYFCQQSYNTPYAFGQGTKVEIK
B4: Omi28 (antibody, V domains shown)
VH: EVQLVESGGGLVQPGGSLRLSCAASGVIVSSNYMSWVRQAPGKGLQWVSVIYSGGSTFYADSVKGRFTISRDNSKNTLYLQMNSLRAEDTAVYYCARDLLEAGGTDYWGQGTLVTVSS
VL: DVVMTQSPGTLSLSPGERATLSCRASQFIGSSYLAWYQQKPGQAPRLLIYGASNRATGVPDRFSGSGSGTDFTLTISRLEPEDFAVYYCQQYGSAPGTFGQGTKVEIK
B5: Omi12 (antibody, V domains shown)
VH: EVQLVESGPEVKKPGTSVKVSCKASGFSFSMSAMQWVRRARGQRLEWIGWIVPGSGNANYAQKFQERVTITRDESTNTGYMELSSLRSEDTAVYYCAAPHCNKTNCYDAFDIWGQGTMVTVSS
VL: AIRMTQSPGTLSLSPGERATLSCRASQSVRSSYLAWYQQKPGQAPRLLIYGASTRATGIPDRFSGSGSGTDFILTINRLEPEDLAVYYCQQFGSSPWTFGQGTKVDIK
B6: Omi35 (antibody, V domains shown)
VH: QVQLVESGGGLVQPGRSLRLSCAASGFTFDDYAMHWVRQAPGKGLEWVSGSTWNSGTIDYADSVKGRFTISRDNAKNSLYLQMNSLRAEDTALYYCAKDRFRKGCSSTGCYKENYGMDVWGQGTTVTVSS
VL: QSVVTQPPSVSVAPGQTARITCGGTNIGSKSVHWYQQKPGQAPVLVVYDDSDRPSGIPERFSGSNSGNTATLTITWVEAGDEADYYCQVWDSSSDNVLFGGGTKLTVL
B7: Omi-20 Fab (Fab, V domains shown)
VH: EVQLVESGGGLVQPGGSLRLSCEASEITVSSNYMNWVRQAPGKGLEWVSVLFAGGTTYYADSVKGRFTISRDNSKNTLYLQMNTLRIEDTAIYYCARDLVAYGVDVWGQGTTVTVSS
VL: AIQMTQSPSFLSASVGDRVTITCRASQGISGDLAWYQQKPGKAPKLLIYAASTLQSGVPSRFSGSGSGTEFTLTISSLQPEDFATYYCQHLNSYPLTFGGGTKVEIK
B8: Omi34 (antibody, V domains shown)
VH: QVQLVQSGAEVKKPGSSVKVSCKASGGTFSSYGIRWVRQAPGQGLEWMGGIIPVFGATNYAQKFQDRVTITADKSTATAYMELSSLKSDDTAVYFCARDALSASGWTGPFDSWGQGTLVTVSS
VL: QSVLTQPPSVSGAPGQRVTISCTGSSSNIGADYDVHWYQQLPGAAPKLLIYGNNNRPSGVPDRFSGSKSGTSASLAITGLQAEDEADYYCQSYDSSQNAFYVFGTGTKVTVL
B9: Omi08 (antibody, V domains shown)
VH: EVQLVESGAEVKRPGASVKVSCKASGYTFTNYFMHWVRQAPGQGLEWMGVINPSDGGASYPQKFQGRVTMTRDTSTSTVYMDLSSLRSEDTAVYSCARGAFDVSGSWYVPFDYWGQGTLVTVSS
VL: QSVVTQPPSVSGAPGQRVTISCTGSSSNIGAGYDVHWYQQLPGAAPKLLIYGNTNRPSGVPDRFSGSKSGTSASLAITGLQAEDEADYYCQSYDITLSGSGYVFGTGTKVTVL
B10: Omi29 (antibody, V domains shown)
VH: QVQLVESGGGLVQPGGSLRLSCAASGLIVSRNYMSWVRQAPGKGLEWVSLIYAGGSTFYSDSVKGRFTISRHSSENTLFLQMNSLRAEDTAVYYCARDLVHYGMDVWGQGTTVTVSS
VL: NFMLTQPASVSGSPGQSITISCTGTSSDVGGYNYVSWYQQHPGKAPKLMIYDVSNRPSGVSNRFSGSNSGNTASLTISGLQAEDEADYYCSSYTSGSTWVFGGGTKLTVL
B11: Omi02 (antibody, V domains shown)
VH: EVQLVESGAEVKKPGSSVKVSCKASGGTFSSYAINWVRQAPGQGLEWMGGIIPIFRTPHYAQKFQGRVTITADESTGTAYMELSSLRSEDTAVYYCASPSCGGDCPQYLKSSKLDWYFDLWGRGTLVTVSS
VL: VIWMTQSPGTLSLSPGERATLSCRASQSVSSTYLAWYQQKPGQAPRLLIYGASSRATGIPDRFSGSGSGTDFTLTISRLEPEDFAVYYCQHYGSSPLTFGQGTRLEIK
B12: Omi38 (antibody, V domains shown)
VH: QVQLVESGAEVKKPGSSVKVSCKASGGNFNMYTISWVRQAPGRGLEWMGRFIPIANKANYAQNFPGRVTITADKSTSTVYMELRSLTSDDTAVYYCARSGSYDAFDVWGQGTMVTVSS
VL: AIRMTQSPSTLSASVGDRVTITCRASQTINSWLAWYQQKPGKAPKLLIYDASNLESGVPSRFSGSGSGTEFTLTISSLQPDDFATYYCQQYESYSPITFGQGTRLEIK
B13: Omi23 (antibody, V domains shown)
VH: QVQLQESGPGLVKSSQTLSLTCTVSGDSISRGGYYWSWIRQHPGKGLEWIGSIYYSGSTYYNPSLKSRFTISVDTSKNQFSLKLSSVTAADTAVYHCAREIGFLDYWGQGTLVTVSS
VL: AIQMTQSPSSLSASVGDRVTITCRASQAISNSLAWYQQKPGKAPKLLLYAASTLESGVPSRFSGSGSGTDFTLTISSLQPEDFATYFCQQYYSTPPRTFGQGTKVDIK
B14: Omi30 (antibody, V domains shown)
VH: EVQLVESGAEVKKPGSSVKVSCKASGGTFSRYAISWVRQAPGQGLEWMGGIIPIFDATNYAQKFHDRVTITADKSASTAYMELSSLRSDDTAVYYCARERTYCSGGTCYGGYFYYGMDVWGQGTTVTVSS
VL: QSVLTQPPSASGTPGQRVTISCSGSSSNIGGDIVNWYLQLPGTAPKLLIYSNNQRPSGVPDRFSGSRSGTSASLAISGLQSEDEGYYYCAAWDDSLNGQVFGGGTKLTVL
B15: Omi27 (antibody, V domains shown)
VH: EVQLLESGGGLVQPGGSLRLSCVASGLTVSSNYMSWVRQAPGKGLEWVSIIYPGGTTYYADSVKGRFTTSRDKSKNTLYLQMNSLRAEDTAVYYCARDLAVAGGMDVWGQGTTVTVSS
VL: EIVMTQSPSSLSASVGDRVTITCRASQGIGNDLGWYQQKPGKAPKVLIYAASNLQSGVPSRFSGSGSGTDFTLTISSLQPEDFATYYCLQDSNYPYTFGQGTKVEIK
B16: Omi24 (antibody, V domains shown)
VH: QVQLVESGAEVKKPGSSVKVSCKASGGTFSSHGVIWVRQAPGQGLEWMGGIIPIFPTANYAQKFQGRVTITADKPSNTAYMELSSLRSEDTAVYYCARARGEHDSVWGSFHYYFDYWGQGTLVTVSS
VL: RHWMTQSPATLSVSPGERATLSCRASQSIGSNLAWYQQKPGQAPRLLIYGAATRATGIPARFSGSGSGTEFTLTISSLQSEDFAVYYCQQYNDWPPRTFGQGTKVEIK
B17: Omi16 (antibody, V domains shown)
VH: EVQLVESGGGVVQPGGSLRLSCAASGIIVSANYMTWVRQAPGKGLEWVSVIYPGGSTFYADSVKGRFTISRDNSKNTLYLQMNSLRVEDSAVYYCARDLELAGFNDFWGQGTLVTVSS
VL: DVVMTQSPGTLALSPGERATLSCRTSQSVSSNYLAWYQQKPGQAPRLLIYGASSRATGIPDRFSGSGSGTDFTLTISRLEPEDFAVYYCQQFGSSPRYTFGQGTKVEIK
B18: Omi17 (antibody, V domains shown)
VH: QVQLVESGGGVVQPGGSLRLSCAASGVTVSSNYMSWVRQAPGKGLEWVSVLYAGGSTFYADSVKGRFTISRDNSKNTLYLQMNSLRAEDTAAYYCARDLAVAGFLDSWGQGTLVTVSS
VL: DIVMTQSPGTLSLSPGERATLSCRASQGVSSIYLAWYQQKPGQAPRLVLYGASSRATGIPDRFSGSGSGTDFTLTISRLEPEDFAVYYCQQYGSSPRYTFGQGTKVEIK
B19: Omi-18 Fab (Fab, V domains shown)
VH: QVQLVESGGGLIQPGGSLRLSCAASGITVSSNYMTWVRQAPGKGLEWVSLLYAGGSAFYADSVKGRFTISRDNSKNTLYLLMNSLRVGDTAVYYCARDLQVYGMDVWGQGTTVTVSS
VL: SYELTQPPSVSVAPGQTARITCGGNNDGAKSVHWYQQKPGQAPVLVVYDDSDRPSGIPERFSGSNSGNTATLTITRIEAGDEADYYCQVWDSSRDHVFGTGTKVTVL
B20: Omi26 (antibody, V domains shown)
VH: QVQLVQSGTEVKKPGASVKVSCKASDYTFTRFGIIWVRQAPGQGLEWMGQINPYNGNTDYAQKFQGRVTLTTDTSTNTAYMELRSLRSDDTAVYYCARSAGSPTGLDYWGQGTLVTVSS
VL: QSVVTQPPSVSEAPRQRVTISCSGSNSNIGNNAVNWYQQLPGKAPKLLVYYDDLLPSGVSDRFSGSKSGTSASLAISGLQSEDKADYYCAAWDDSLNALVFGGGTKLTVL
B21: Omi33 (antibody, V domains shown)
VH: EVQLLESGGGVVQPGRSLRLSCAASGFKFSDYGMHWVRQAPGKGLEWVAVYWYDGGTKFYADSVKGRFTISRDNSKNTLYLQMSSLRVEDTAVYYCARDTAPPDYWGQGTLVTVSS
VL: EIVLTQSPGTLSLSPGERATLSCRASQSISSNFLAWYQQKPGQAPRLLIYGASSRATGIPDRFSGSGSGTDFTLTISRLEPEDFAVYYCQQYGTSPRLTFGGGTKVDIK

Experiments:
Omicron BA.1 RBD = biological target: T1, Omicron BA.1 RBD (SARS-CoV-2, UniProt P0DTC2 333-528); assay: ELISA
T1 construct: domain: RBD

Omicron BA.2 RBD [1] = biological target: T2, Omicron BA.2 RBD (SARS-CoV-2, UniProt P0DTC2 333-528)
Omicron BA.2 RBD [2] = biological target: T2, Omicron BA.2 RBD; remark: listed apart in the source
Omicron BA.2 RBD [3] = biological target: T2, Omicron BA.2 RBD; remark: listed apart in the source

Row | Binder | binding result (Omicron BA.1 RBD) | also measured
1 | B1 | binds | –
2 | B2 | binds | –
3 | B3 | binds | –
4 | B4 | binds | –
5 | B5 | – | Kd (Omicron BA.2 RBD [1]): 0.13 nM; T1/2 (Omicron BA.2 RBD [1]): 20 min; koff (Omicron BA.2 RBD [1]): 0.00058 s⁻¹; kon (Omicron BA.2 RBD [1]): 4.3e+06 M⁻¹ s⁻¹
6 | B6 | binds | –
7 | B7 | – | Kd (Omicron BA.2 RBD [2]): 138 nM; T1/2 (Omicron BA.2 RBD [2]): 3.2 min; koff (Omicron BA.2 RBD [2]): 0.0036 s⁻¹; kon (Omicron BA.2 RBD [2]): 26000 M⁻¹ s⁻¹
8 | B8 | binds | –
9 | B9 | binds | –
10 | B10 | binds | –
11 | B11 | binds | –
12 | B12 | binds | –
13 | B13 | binds | –
14 | B14 | binds | –
15 | B15 | binds | –
16 | B16 | binds | –
17 | B17 | binds | –
18 | B18 | binds | –
19 | B19 | – | Kd (Omicron BA.2 RBD [3]): 4.3 nM; T1/2 (Omicron BA.2 RBD [3]): 20 min; koff (Omicron BA.2 RBD [3]): 0.00057 s⁻¹; kon (Omicron BA.2 RBD [3]): 130000 M⁻¹ s⁻¹
20 | B20 | binds | –
21 | B21 | binds | –
